Test results: publication PMC10770391, “Site-selective chlorination of pyrrolic heterocycles by flavin dependent enzyme PrnC” (Communications Chemistry, 2024)

Substrate: Nc1c(Cl)cccc1-c1cc[nH]c1
Assay: purified protein
Format: biochemical, Pseudomonas fluorescens
Details: E. coli Fre 2.5 μM, FAD 1 μM, MgCl2 10 mM, NADH 2.5 mM, 20 mM Tris pH 7.4, PrnC 2.5 μM, chlorination

B1: PrnC (NT11-PrnC-6His; native PrnC) (Pseudomonas fluorescens) (protein)
chain: MTQKSPANEHDSNHFDVIILGSGMSGTQMGAILAKQQFRVLIIEESSHPRFTIGESSIPETSLMNRIIADRYGIPELDHITSFYSTQRYVASSTGIKRNFGFVFHKPGQEHDPKEFTQCVIPELPWGPESHYYRQDVDAYLLQAAIKYGCKVHQKTTVTEYHADKDGVAVTTAQGERFTGRYMIDCGGPRAPLATKFKLREEPCRFKTHSRSLYTHMLGVKPFDDIFKVKGQRWRWHEGTLHHMFEGGWLWVIPFNNHPRSTNNLVSVGLQLDPRVYPKTDISAQQEFDEFLARFPSIGAQFRDAVPVRDWVKTDRLQFSSNACVGDRYCLMLHANGFIDPLFSRGLENTAVTIHALAARLIKALRDDDFSPERFEYIERLQQKLLDHNDDFVSCCYTAFSDFRLWDAFHRLWAVGTILGQFRLVQAHARFRASRNEGDLDHLDNDPPYLGYLCADMEEYYQLFNDAKAEVEAVSAGRKPADEAAARIHALIDERDFAKPMFGFGYCITGDKPQLNNSKYSLLPAMRLMYWTQTRAPAEVKKYFDYNPMFALLKAYITTRIGLALKK
notes: N-terminal 11-residue NT11 solubility tag and C-terminal 6His tag, pET-28a(+), expressed in E. coli T7 Express, Ni-NTA purified; dimer by cryo-EM
Question: How did the Km turn out when B1 was run?
Answer: 15.8 ± 0.7 µM

Question: What about the kcat of the same protein?
Answer: 0.00767 s⁻¹
